# Reference: US20030119038A1, “NARC1, novel subtilase-like homologs” (priority 1999, published 2003)
# Changes are numbered by the printed parent chain. In names and notes the source's numbering stands. Entries after “also recorded” stand apart in the source; their conditions may differ. Read-outs that look alike come from different tables or passages of the source.
# B1: S385A: Full-length NARC1 point mutant; mutation of the active site serine (protein)
# chain: MGIRCSTWLRWPLSPQLLLLLLLCPTGSRAQDEDGDYEELMLALPSQEDSLVDEASHVATATFRRCSKEAWRLPGTYVVVLMEETQRLQVEQTAHRLQTWAARRGYVIKVLHVFYDLFPGFLVKMSSDLLGLALKLPHVEYIEEDSLVFAQSIPWNLERIIPAWQQTEEDSSPDGSSQVEVYLLDTSIQSGHREIEGRVTITDFNSVPEEDGTRFHRQASKCDSHGTHLAGVVSGRDAGVAKGTSLHSLRVLNCQGKGTVSGTLIGLEFIRKSQLIQPSGPLVVLLPLAGGYSRILNTACQRLARTGVVLVAAAGNFRDDACLYSPASAPEVITVGATNAQDQPVTLGTLGTNFGRCVDLFAPGKDIIGASSDCSTCYMSQSGTAQAAAHVAGIVAMMLNRDPALTLAELRQRLILFSTKDVINMAWFPEDQRVLTPNRVATLPPSTQETGGQLLCRTVWSAHSGPTRTATATARCAPEEELLSCSSFSRSGRRRGDRIEAIGGQQVCKALNAFGGEGVYAVARCCLLPRVNCSIHNTPAARAGPQTPVHCHQKDHVLTGCSFHWEVENLRAQQQPLLRSRHQPGQCVGHQEASVHASCCHAPGLECKIKEHGIAGPAEQVTVACEAGWTLTGCNVLPGASLPLGAYSVDNVCVARIRDAGRADRTSEEATVAAAICCRSRPSAKASWVHQ
# modifications: mutant of rat sequence mutating amino acid Ser385Ala of SEQ ID NO9
# B2: H225W, S385A: Full-length NARC1 double mutant; active site histidine and serine mutated (protein)
# chain: B1 chain with H225W
# modifications: mutant of rat sequence mutating amino acid His225Trp and Ser385Ala of SEQ ID NO9
# Tests used:
# [1] = tested on: NARC1 transfectants
# Description: Following transient expression of this construct in CGNs, the percentage of GFP positive and GFP negative cells undergoing apoptosis was determined by Laser-Scanning Cytometry.
# Following transient expression of the wild-type and point-mutant NARC1 constructs in CGNs, the percentage of GFP-positive cells undergoing apoptosis was determined by Laser-Scanning Cytometry.
# (§1) The serine protease inhibitors Aminoethyl-benzene sulfonyl fluoride, an irreversible inhibitor (AEBSF), Aprotinin, a reversible inhibitor, and N-Tosyl-lysine-chloromethylketone (TLCK, an inhibitor known to covalently bind to serine proteases) were investigated to see if any of these reagents can rescue the cell death effects of wild-type NARC1. Caspase 9 transfection was included to test for specificity of any rescue effects.
# CGNs were transfected with each of the C-terminal truncation mutants described above. Following transient expression of these constructs, the percentage of GFP positive cells undergoing apoptosis was determined by Laser-Scanning Cytometry.
# [2] = tested on: Caspase 9 transfection; settings: 24-hour exposure
# From the text: as §1
# [3] = tested on: furin; settings: Bathurst (1987); cited from earlier work
# [4] = target: furin (Homo sapiens, UniProt P09958); settings: cited from earlier work
# furin (Homo sapiens, UniProt P09958), sequence (P09958 108-794, species assumed): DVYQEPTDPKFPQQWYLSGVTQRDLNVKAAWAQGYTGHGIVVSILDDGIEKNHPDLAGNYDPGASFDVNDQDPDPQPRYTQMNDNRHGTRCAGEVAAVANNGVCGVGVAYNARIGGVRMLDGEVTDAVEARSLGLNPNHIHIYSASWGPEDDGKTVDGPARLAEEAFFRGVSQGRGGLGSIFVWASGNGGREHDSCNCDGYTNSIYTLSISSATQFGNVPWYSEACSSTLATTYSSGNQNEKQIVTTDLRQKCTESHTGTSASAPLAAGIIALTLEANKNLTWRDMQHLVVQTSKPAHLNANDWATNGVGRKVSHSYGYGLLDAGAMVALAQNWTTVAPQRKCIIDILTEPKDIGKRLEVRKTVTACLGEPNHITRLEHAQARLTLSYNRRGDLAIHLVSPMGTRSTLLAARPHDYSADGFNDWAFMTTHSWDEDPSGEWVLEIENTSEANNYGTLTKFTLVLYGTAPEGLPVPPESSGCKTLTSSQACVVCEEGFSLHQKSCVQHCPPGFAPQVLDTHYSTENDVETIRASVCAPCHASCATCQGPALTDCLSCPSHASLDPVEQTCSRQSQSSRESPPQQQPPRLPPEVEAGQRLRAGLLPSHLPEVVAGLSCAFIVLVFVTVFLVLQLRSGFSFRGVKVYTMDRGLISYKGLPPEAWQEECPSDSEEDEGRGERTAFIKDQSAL
# [5] = tested on: NARC1; assay: Autoprocessing of NARC1 transiently expressed in COS-7 cells, Western blotting; assay type: cell-based, rat; settings: C-terminal myc/His fusion transiently expressed in COS-7 cells, 60 kD processing product on Western blot
# Description: The wild-type NARC1-myc/His clone was transiently expressed in COS-7 cells. The cells were then harvested, lysed, and the protein extracted. Polyacrylamide gel electrophoresis was then carried out on the protein extracts, followed by Western blotting. The resulting membranes were probed using both anti-myc- and NARC1-specific antibodies. Routine techniques and protocols were followed. See, e.g., Ausubel et al.(1998), supra.
# This cleavage event maps to approximately the junction between the pro-domain and the enzymatic domain.
# Autoprocessing of NARC1 was investigated as follows. COS-7 cells were co-transfected with the following EGFP and myc plasmids: (A) wild-type NARC1-myc and wild-type NARC1-EGFP; (B) S385A NARC1-myc and S385A NARC1-EGFP; and (C) wild-type NARC1-myc and S385A NARC1-myc. The cells were then harvested, lysed, and the protein extracted. Polyacrylamide gel electrophoresis was then carried out on the protein extracts, followed by Western blotting. The resulting membranes were sequentially probed using first the anti-myc and then the anti-EGFP monoclonal antibodies (Abs). Thus, the experiment allowed sequential detection of the separate NARC1 products encoded from the two co-transfected plasmids.
# As indicated above, a series of C-terminal truncation mutants were generated. The truncation NARC1-myc/His clones were transiently expressed in COS-7 cells. The cells were then harvested, lysed, the protein extracted, and polyacrylamide gel electrophoresis carried out on the protein extracts. Western analysis was then carried out using both anti-myc and NARC1-specific antibodies.
# [6] = tested on: Ntera2 cells; assay: NARC1-EGFP transfection of Ntera2 cells, nuclear area condensation; assay type: cell-based, human; settings: C-terminal EGFP constructs, 24 hours
# Description: Specifically, Ntera2 cells were transfected with C-terminal EGFP constructs of wild-type NARC1, each of the point-mutant NARC1s, and caspase 9. At 24 hours, nuclear area condensation was assessed for the entire Ntera2 cell population and compared to nuclear area condensation for the transfected cell population.
# [7] = tested on: cerebellar granule neurons (CGNs); assay: Apoptosis after transient expression of NARC1-EGFP constructs in CGNs, Laser-Scanning Cytometry; assay type: cell-based, rat; settings: EGFP construct transiently expressed in CGNs, percentage of GFP-positive cells undergoing apoptosis
# From the text: Cerebellar granule neurons (CGNs) were transfected with a NARC1-enhanced green fluorescent protein (EGFP) expression construct (with the EGFP sequences located at the carboxy terminus of the fusion protein). Unless otherwise indicated, the construct utilized in the following experiments contained 2073 base pairs of the rat NARC1 transcript set forth in FIG. 5. Specifically, this corresponds to nucleotides 205-2277 and amino acid residues 56-746 of SEQ ID NO:4 and SEQ ID NO:3, respectively. The polypeptide sequence encoded by the NARC1 insert utilized herein has been set forth as SEQ ID NO:9 herein. The nucleotide sequence of this insert has been set forth as SEQ ID NO:10.
# To investigate NARC1-mediated neuronal cell death, transient expression of the EGFP clones was carried out in cerebellar granule neurons (CGNs). These studies are set forth in detail as follows.
Molecule,Rescue of cell death in NARC1 transfectants ([1]; 24-hour exposure),Autoprocessing Activity [5],Sensitivity of cells to expression (nuclear area condensation) [6],Resulting Cell Death Activity [7],also measured
Aminoethyl-benzene sulfonyl fluoride [AEBSF],dose-dependent rescue of cell death,–,–,–,Toxicity ([1]; 48-hour exposure): appeared toxic; Rescue of Caspase 9-induced cell death [2]: substantial rescue
N-Tosyl-lysine-chloromethylketone [TLCK],some suggestion of rescue,–,–,–,Rescue of cell death in NARC1 transfectants ([1]; 48-hour exposure): increased effectiveness
variant of α1-antitrypsin: α1-antitrypsin variant with replacement of the reactive-site MET residue by ARG; protein-based furin inhibitor,–,–,–,–,Inhibition of in vitro conversion of proalbumin [3]: inhibit the in vitro conversion of proalbumin
α1-PDX: α1-antitrypsin variant in which reactive center ALA-ILE-PRO-MET is replaced by ARG-ILE-PRO-ARG,–,–,–,–,"Inhibition of cleavage of viral envelope glycoproteins, including HIV gp160 [4]: inhibit the cleavage of viral envelope glycoproteins"
B1,–,absence of autoprocessing; also recorded: eliminate NARC1 autoprocessing; also recorded: Absence of processing,equally sensitive,"reduced, but still substantial, pro-apoptotic effect; also recorded: somewhat reduce the pro-apoptotic effect; also recorded: Reduced activity",–
B2,–,eliminate NARC1 autoprocessing; also recorded: Absence of processing,equally sensitive,somewhat reduce the pro-apoptotic effect; also recorded: Reduced activity,"Autoprocessing Activity ([5]; listed as double mutant): absence of autoprocessing; Resulting Cell Death Activity ([7]; listed as double mutant): reduced, but still substantial, pro-apoptotic effect"
